# Measurements reported in IntAct's records for PubMed 9653157.
# B1: Cell division control protein 18 (Schizosaccharomyces pombe (strain ATCC 38366 / 972)), P41411 (parent)
# chain: MCETPIGCHTPRRCNRFIDSAALIDCTNKTNQREHSPSFSIEIPTTPSRKRTLASSHFQTPTKRIKYELGELQEEKTDLYPNFPAQLKENKKPKLPTTPQTPKTPKRTIQIVTPKSLNRTCNPVPFATRLLQSTPHRQLFPPTPSTPSTPSYNSTAKLSLRKSYRSAGVVGRENEKSIVESFFRQHLDANAGGALYVSGAPGTGKTVLLHNVLDHVVSDYPKVNVCYINCMTINEPKAIFEKIHSKIVKEEILENEDHHINFQCELESHFTQSANELYNPVIIVLDEMDHLIAREQQVLYTLFEWPSRPTSRLILVGIANALDMTDRFLPRLRTKHITPKLLSFTPYTAQEISTIIKARLKTAATTSEKNNPFTPIKSISEVSDDSINVVSQHADETPFIHPAAIELCARKVAASSGDLRKALDICRHAIELAEREWKAQHDNTLSSVDIPRASIAHVVRATSAMSQSASARLKNLGLQQKAILCTLVVCEKTSLSVADVFEKYSSLCLRDRLIYPLTSSEFCDVANSLETLAIIRLRTKQRNGKPQDRIISLLVPEMDVITAVGDIGTLKRFFDRR
# partner: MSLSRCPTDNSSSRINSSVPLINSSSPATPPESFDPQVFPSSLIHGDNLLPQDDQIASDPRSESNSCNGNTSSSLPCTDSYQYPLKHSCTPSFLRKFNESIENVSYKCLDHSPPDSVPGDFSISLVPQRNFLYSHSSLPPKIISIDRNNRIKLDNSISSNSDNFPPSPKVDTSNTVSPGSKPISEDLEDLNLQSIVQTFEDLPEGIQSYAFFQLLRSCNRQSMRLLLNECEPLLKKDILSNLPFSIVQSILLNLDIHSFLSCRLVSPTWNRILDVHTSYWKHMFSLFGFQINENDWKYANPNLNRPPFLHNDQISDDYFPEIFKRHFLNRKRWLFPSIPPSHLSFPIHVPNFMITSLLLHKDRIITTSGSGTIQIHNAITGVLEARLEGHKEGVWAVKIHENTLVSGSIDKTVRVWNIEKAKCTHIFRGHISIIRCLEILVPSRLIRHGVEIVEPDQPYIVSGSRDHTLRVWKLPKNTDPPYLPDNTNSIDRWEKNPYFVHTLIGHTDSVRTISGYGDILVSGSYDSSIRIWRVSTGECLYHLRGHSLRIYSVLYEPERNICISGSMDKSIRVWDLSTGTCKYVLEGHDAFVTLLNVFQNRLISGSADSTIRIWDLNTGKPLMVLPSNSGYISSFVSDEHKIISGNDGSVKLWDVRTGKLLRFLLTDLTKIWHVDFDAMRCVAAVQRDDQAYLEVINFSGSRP
# Variants of: B1
# Conditions: with pop2_schpo pop2, O14170
row,Variant,effect of a mutation on the interaction
1,MCEAPIGCHAPRRCNRFIDSAALIDCTNKTNQREHSPSFSIEIPTAPSRKRTLASSHFQAPTKRIKYELGELQEEKTDLYPNFPAQLKENKKPKLPTTPQAPKAPKRTIQIVTPKSLNRTCNPVPFATRLLQSTPHRQLFPPTPSTPSTPSYNSTAKLSLRKSYRSAGVVGRENEKSIVESFFRQHLDANAGGALYVSGAPGTGKTVLLHNVLDHVVSDYPKVNVCYINCMTINEPKAIFEKIHSKIVKEEILENEDHHINFQCELESHFTQSANELYNPVIIVLDEMDHLIAREQQVLYTLFEWPSRPTSRLILVGIANALDMTDRFLPRLRTKHITPKLLSFTPYTAQEISTIIKARLKTAATTSEKNNPFTPIKSISEVSDDSINVVSQHADETPFIHPAAIELCARKVAASSGDLRKALDICRHAIELAEREWKAQHDNTLSSVDIPRASIAHVVRATSAMSQSASARLKNLGLQQKAILCTLVVCEKTSLSVADVFEKYSSLCLRDRLIYPLTSSEFCDVANSLETLAIIRLRTKQRNGKPQDRIISLLVPEMDVITAVGDIGTLKRFFDRR [T4A;T10A;T46A;T60A;T101A;T104A],disrupting interaction
